The test system of data set [1] is lacZ α-complementing gene in M13mp2 DNA. Briefly: DNA synthetic fidelity, base-substitution (opal codon) reversion assay. In kind it is biochemical. Here is the method: (§1) DNA Synthetic Fidelity. The fidelity of the single catalytic subunit and the four subunit polymerase α/primase was measured and compared. Three methods were used to measure a single round of gap filling synthesis within the lacZ α-complementing gene in M13mp2 DNA. See T. A. Kunkel et al. Mol. Cell. Biol. 9:4447 (1989). In all three assays, a gapped, double-stranded M13mp2 DNA is constructed which contains a single-stranded gap as the mutation target. The three assays are: (A) forward mutation assay, (B) opal codon reversion assay, and (C) assay for −1 base frame-shift.
(§2) The DNA synthetic mutational frequency and the error rate of the two forms of DNA polymerase α measured by these three methods are summarized in Table III. […] The DNA synthetic fidelity values obtained are also in agreement with the values previously determined for the four subunit polymerase α.

Data set [2] is described as follows: Thermostability: preincubation at 37° C. before assaying polymerase activity. In kind it is physicochemical. On the procedure:
Thermosensitivity. The thermostability of the two forms of polymerase α was also compared; this was done by preincubation at 37° C. for various times before assaying polymerase activity. […] (data not shown). These decreases in polymerase activity was not due to proteolysis of the polymerase protein.

Data set [3] concerns lacZ α-complementing gene in M13mp2 DNA. The experiment in a line: DNA synthetic fidelity, forward mutation assay. It is filed as biochemical. The conditions noted are these: light blue and colorless plaques. On the procedure: as §1, §2
Data set [4] deals with matched 24 mer or mismatched 29 mer annealed to M13mp18 single stranded DNA. Briefly: Proofreading exonuclease assay on primed M13mp18. In kind it is biochemical. Conditions: up to 30 minutes at 37° C. On the procedure: Proofreading exonuclease activity of the recombinant single subunit poymerase α was assayed with a singly primed M13mp18 template (SEQ ID NO:5), primed either with a matched 24 mer (SEQ ID NO:4) (FIG. 8B) or a mismatched 29 mer (SEQ ID NO:2) (FIG. 8A), each ^32P-labeled at the 5′ end by T4 polynucleotide kinase. The mismatched 29 mer (SEQ ID NO:2) contains 9 mismatched T's on the 3′ terminus. Correct proofreading of this 29 mer (SEQ ID NO:2) annealed to M13mp18 (SEQ ID NO:3) would produce a 20 mer in the absence of deoxynucleotide triphosphates (dNTPs).
To perform the assay, two oligonucleotides, the universal primer, a 24 mer (matched primer) and RD29 mer (mismatched primer), were 5′-end labeled with ^32P-ATP and annealed to M13mp18 single stranded template. 0.1 pmole of this primed M13 was incubated in 20 mM Tris.HCl, pH 7.5, 10 mM MgCl2, 20 mM KCl and 2 mM dithiothreitol at 37° C. in the presence of polymerase in a final volume of 12 μl. Aliquots of 3 μl each were removed at 0, 2.5, 10 and 30 minutes into an equal volume of deionized formamide containing 1 mM EDTA, 0.1% xylene cyanol and 0.1% bromophenol blue and placed on ice. After heating at 95° C. for 5 minutes, one-half of the sample was loaded onto an 18% polyacrylamide, 7 M urea, Tris-borate-EDTA gel. […]

In data set [5] the test system is lacZ α-complementing gene in M13mp2 DNA. Briefly: DNA synthetic fidelity, minus-one frame-shift reversion assay. In kind it is biochemical. Here is the method:
as §1, §2

A further data set relates to oligo(dT)12: poly(dA)290. The experiment in a line: Km for primer terminus. It is filed as biochemical. The conditions noted are these: oligo(dT)12: poly(dA)290, 2 mM MgCl2, 50 μM dTTP. Here is the method: (§3) The standard assay for DNA polymerase α with gapped DNA was performed according to P. A. Fisher and D. Korn, J. Biol. Chem 252:6528 1977). Reactions were performed using optimally gapped salmon sperm DNA in 20 mM Tris.HCl, pH 8.0, 2 mM β-mercaptoethanol (“βME”), 200 μg/ml BSA, 10 mM MgCl2, 50 μM dNTP's with [α-^32P]dATP as the label. One unit of DNA polymerase is defined as the amount of polymerase that incorporates 1 nmole of labeled dNTP into acid-insoluble DNA at 37° C. in 60 min. […] All Kinetic parameters were calculated from Lineweaver-Burk plots by the method of least squares. Km was calculated of the basis of 3′-OH primer termini.

In data set [6] the test system is optimally gapped salmon sperm DNA, dNTP's. The experiment in a line: Kinetic parameters of DNA polymerase α on gapped DNA (Lineweaver-Burk). It is filed as biochemical. The conditions noted are these: for Km: gapped salmon sperm DNA.
Text: Characterization of Affinity. The four subunit-DNA polymerase α/primase complex was purified from human KB cells as described T. Wang et al., J. Biol. Chem. 259:1854 (1984) and used for comparison to the single polypeptide recombinant polymerase α for their respective affinities for dNTP, primer-terminus, and gapped DNA. Prior to the comparison, both the immunopurified recombinant single subunit-polymerase α and the four subunit-polymerase α/primase complex were stored in buffer containing 30% sucrose, 20% ethylene glycol, 50 mM Tris HCL, pH 8.6, 1 mM βME, 1 mM EDTA at −80° C. or stored on packed ice at 4° C.
as §3
The rate of catalysis of these two forms was also measured. The Kcat values determined for the two forms of polymerase α are of a similar order of magnitude.

Read-outs that look alike come from different tables or passages of the source.

B1: Single subunit recombinant Pol α: recombinant human DNA polymerase α catalytic polypeptide (180 kDa) immunopurified from AcHDPα infected Sf9 cells (protein)
chain: MAPVHGDDSLSDSGSFVSSRARREKKSKKGRQEALERLKKAKAGEKYKYEVEDFTGVYEEVDEEQYSKLVQARQDDDWIVDDDGIGYVEDGREIFDDDLEDDALDADEKGKDGKARNKDKRNVKKLAVTKPNNIKSMFIACAGKKTADKAVDLSKDGLLGDILQDLNTETPQITPPPVMILKKKRSIGASPNPFSVHTATAVPSGKIASPVSRKEPPLTPVPLKRAEFAGDDVQVESTEEEQESGAMEFEDGDFDEPMEVEEVDLEPMAAKAWDKESEPAEEVKQEADSGKGTVSYLGSFLPDVSCWDIDQEGDSSFSVQEVQVDSSHLPLVKGADEEQVFHFYWLDAYEDQYNQPGVVFLFGKVWIESAETHVSCCVMVKNIERTLYFLPREMKIDLNTGKETGTPISMKDVYEEFDEKIATKYKIMKFKSKPVEKNYAFEIPDVPEKSEYLEVKYSAEMPQLPQDLKGETFSHVFGTNTSSLELFLMNRKIKGPCWLEVKSPQLLNQPVSWCKVEAMALKPDLVNVIKDVSPPPLVVMAFSMKTMQNAKNHQNEIIAMAALVHHSFALDKAAPKPPFQSHFCVVSKPKDCIFPYAFKEVIEKKNVKVEVAATERTLLGFFLAKVHKIDPDIIVGHNIYGFELEVLLQRINVCKAPHWSKIGRLKRSNMPKLGGRSGFGERNATCGRMICDVEISAKELIRCKSYHLSELVQQILKTERVVIPMENIQNMYSESSQLLYLLEHTWKDAKFILQIMCELNVLPLALQITNIAGNIMSRTLMGGRSERNEFLLLHAFYENNYIVPDKQIFRKPQQKLGDEDEEIDGDTNKYKKGRKKAAYAGGLVLDPKVGFYDKFILLLDFNSLYPSIIQEFNICFTTVQRVASEAQKVTEDGEQEQIPELPDPSLEMGILPREIRKLVERRKQVKQLMKQQDLNPDLILQYDIRQKALKLTANSMYGCLGFSYSRFYAKPLAALVTYKGREILMHTKEMVQKMNLEVIYGDTDSIMINTNSTNLEEVFKLGNKVKSEVNKLYKLLEIDIDGVFKSLLLLKKKKYAALVVEPTSDGNYVTKQELKGLDIVRRDWCDLAKDTGNFVIGQILSDQSRDTIVENIQKRLIEIGENVLNGSVPVSQFEINKALTKDPQDYPDKKSLPHVHVALWINSQGGRKVKAGDTVSYVICQDGSNLTASQRAYAPEQLQKQDNLTIDTQYYLAQQIHPVVARICEPIDGIDAVLIATWLGLDPTQFRVHHYHKDEENDALLGGPAQLTDEEKYRDCERFKCPCPTCGTENIYDNVFDGSGTDMEPSLYRCSNIDCKASPLTFTVQLSNKLIMDIRRFIKKYYDGWLICEEPTCRNRTRHLPLQFSRTGPLCPACMKATLQPEYSDKSLYTQLCFYRYIFDAECALEKLTTDHEKDKLKKQFFTPKVLQDYRKLKNTAEQFLSRSGYSEVNLSKLFAGCAVKS
Consider B1, for which the Error rate is 1/4900 in data set [1] and 1/1800 in data set [5]. Further, the Mutant frequency in data set [1] (blue plaques) is 370 ×10^−6; in data set [3], 300 ×10^−4; in data set [5] (blue plaques), 170 ×10^−5. In data set [2], the “Thermostability, % activity after 30 min at 37° C.” value is reported as 68%. Further, in data set [4], the “3′-5′ exonuclease activity on matched and mismatched primer-template” value was “no apparent 3′-5′ exonuclease was detected”. Besides, the Km – broadly, the substrate concentration at which the rate is half of its maximum – with oligo(dT)12: poly(dA)290 was 0.4 µM; in data set [6] (10 mM MgCl2, pH 8.0, read-out: Km (dNTP)) it was 1.2 µM; in data set [6] (read-out: Km (DNA in nucleotide)), 190 µM. In data set [6], the Kcat was determined as 1.6 s⁻¹.

The values above are taken from patent publication US6670161B1, “Compositions and methods for template-dependent enzymatic synthesis of nucleic acid” (The Board of Trustees of the Leland Stanford Jr. University, priority 1991, dated 2003).
